This series is described as follows: yeast display, Sf9 membrane polyspecificity reagent, FACS + sequencing; frameworks hold sequencing errors. The gist of the method: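 A synthetic nanobody library was expressed on Saccharomyces cerevisiae BJ5465 by galactose induction for 36–48 hours. The library was stained for 1 hour at 4 °C with 10% biotinylated, detergent-solubilized Sf9 membrane reagent and enriched with streptavidin microbeads before FACS. Low and high (top ~1%) gates were set on anti-HA fluorescence for expression and streptavidin fluorescence for reagent binding, and each polyreactivity label reflects the gate of origin.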
With “QVQLVESGGGIVQAGGSLRLSCAASGIIFRAYAMGWSRQAPGKERELVAAISWSGGSTYYADSVKGRFTISRDNAKYTVYLQMNSLNPEDTAVYYCAAESLVYDFDYWGQGTQVTVSS”, the “polyreactivity (PSR sort gate)” value was “high polyreactivity”.

As for “QVQLVESGGGIVQAGGSLRLSCAASGITFDLYAMGWSRQAPGKERELVAASTYYADSVKWRFTISRDYAKNTVYLQMNSLKPEDTAVYYCITREPVTSDYWGLGTQVTVSS”, the “polyreactivity (PSR sort gate)” value is recorded as “high polyreactivity”.

In the case of “QVQLVESGGGIVQAGGSLRLSCAASGITSYFNAMGWYRQAPGKERELVAITWNGGSTYYADSVKGRFTITRDNAKNTVYLQMNSLKPEDTAVYYCAARYRRYNRKYDYWGQGTQVTVSS”, the “polyreactivity (PSR sort gate)” value is recorded as “high polyreactivity”.

For “QVQLVESGGGIVQAGGSLRLSCAASGLIFYYYALGWYRQAPGKERQLVAAITSGSTTYADSVKGRFTISRDNAKNTVYLQMNSLKPEDTAVYYCNKDQDYKLTTTFDYDYWGQGTQVTVSS”, the “polyreactivity (PSR sort gate)” value was “low polyreactivity”.

As for “QVQLVESGGGIVQAGGSLRLSCAASGRIFANYAKGWYRQAPGKERELVAAISRSGGSTSYADSVKGRFTISRDNAKYTVYLQMNSLKPEETAVSYCAVVSPRQSYYYWGQGTQVTVSS”, the “polyreactivity (PSR sort gate)” value is recorded as “high polyreactivity”.

On to “QVQLVESGGGIVQAGGSLRLSCAASGRIFDNYVLGWYRQAPGKERELVAAISSGGGTYYADSVKGRFTISRDNAKNTVYLQMNSLKPEDTAVYYCAKRRVYDRSFGRYDYWGQGTQVTVSS”, for which the “polyreactivity (PSR sort gate)” value was “low polyreactivity”.

For the sequence “QVQLVESGGGIVQAGGSLRLSCAASGRIFGYYAMGWYRQARGKERELVAAITWSGGRTYYADSVKGRFTISRDNAKNTVYLQMNSLKPDDTAVYYCAAVVQGPNRKYNYWGQGTQVTVSS”, the “polyreactivity (PSR sort gate)” value was “high polyreactivity”.

Turning to “QVQLVESGGGIVQAGGSLRLSCAASGRIFLRNAMGWYRQAPGYEREFVAAMRYSGGRTYYADSVKGRFTISRDNAKNTVYLQMISLNPEDTAVYYCAAEGSSRSSYRKYDYWGQGSQVTVSS”, the “polyreactivity (PSR sort gate)” value is reported as “high polyreactivity”.

Regarding “QVQLVESGGGIVQAGGSLRLSCAASGRIFRINGMGWYRQAPGKEREFVAAITSGGGTYYADSVKGRFTISRDNAKNTVYLQMNSLKAEDTAVFYCAVRRRYGDDYWGHGTQVTVSS”, the “polyreactivity (PSR sort gate)” value is listed as “high polyreactivity”.

Consider “QVQLVESGGGIVQAGGSLRLSCAASGRIFRIYAMGWYRQAPGKEWELVASISWGGASTYYADSVKGRFTISRDNAKNPVYLQMNSLKPEDTAVYDCAAVGYQGQYDYRSFGSWGQGTQVTVSS”, for which the “polyreactivity (PSR sort gate)” value was “high polyreactivity”.

In the case of “QVQLVESGGGIVQAGGSLRLSCAASGRIFSSYAMGWYRQAPGKERELVAAITRGGSTYYADSVKGRFTISRDNANNTVHLQMNSLKPEDPAVYYCAARPPYRYWFWGNEDYWGQGTQVTVSS”, the “polyreactivity (PSR sort gate)” value is on record as “high polyreactivity”.

Take “QVQLVESGGGIVQAGGSLRLSCAASGRIFVLYAMGSYRQAPGKERELVADITVSGGRTYYADSVKGRFTISRDNAKYTVYLQMNSLKPEDTAVYYCAASPRSYYWRYYQEDYWGQGTQVTVSS”: the “polyreactivity (PSR sort gate)” value is listed as “high polyreactivity”.

With “QVQLVESGGGIVQAGGSLRLSCAASGRIFWWYAMGMYRQAPGKERELVAVIDDSGGITYYADSVKGRFTISRDNAKNTVYLQMNSLKPEDTAVYYCARNVNAQKVLGGFDSWGQGTQVTVSS”, the “polyreactivity (PSR sort gate)” value is “low polyreactivity”.

With “QVQLVESGGGIVQAGGSLRLSCAASGRIFYINAMGWYRQSPGKERELVAAITGSGGRTYYADSVKGRFTISRDNAKNTVYLHINSLKPEDTAVYYCAAQKKHYSYSYWYDSLGQGTQVTVSS”, the “polyreactivity (PSR sort gate)” value was “high polyreactivity”.

For the sequence “QVQLVESGGGIVQAGGSLRLSCAASGRIFYYNAMGWYRQAPGKERELVAAISTRGTSTYYAESVKGRFTISRDNAKNTVYLQMNSLKPEDTAVYYCNRASGNWQSYLSYDYWGQGTQVTVSS”, the “polyreactivity (PSR sort gate)” value is “low polyreactivity”.

As for “QVQLVESGGGIVQAGGSLRLSCAASGRLFYYYAMGWDRQAPGTERELVAVISRGVITYYADSVKGRFTISRDTAKNTVYLQMNSLKPEDTAVYYCAVSYPHYIYSYGYWGQGTQVTVSS”, the “polyreactivity (PSR sort gate)” value is reported as “high polyreactivity”.

Consider “QVQLVESGGGIVQAGGSLRLSCAASGRTFWGYAMGWYRQAPGKERELVASISGRGGSTYYADSVKERFTISRDTAKNTVYLQINSLQPEDTAVYYCAATYFSVKWYYYWGEGTQVTVSS”, for which the “polyreactivity (PSR sort gate)” value is “high polyreactivity”.

Consider “QVQLVESGGGIVQAGGSLRLSCAASGRTLGGYAMGWYRQAPGKERELVAAITRRGGSTYYADSVKGRFTISRDNAKNTVYLQMNSLKPEDTAVYYCAARWYARSLTRFNYWGQGTQVTVSS”, for which the “polyreactivity (PSR sort gate)” value was “high polyreactivity”.

Turning to “QVQLVESGGGIVQAGGSLRLSCAASGRTSVINAMGWYRQAPGKERELVASISRGGSTNYADSVKGRFTISRDNAKNTVYLQMNSLKPEDTAVYYCNADEQNDSFIWSYTIIYDYWGQGTQVTVSS”, the “polyreactivity (PSR sort gate)” value is on record as “low polyreactivity”.

Regarding “QVQLVESGGGIVQAGGSLRLSCAASGSIFADYAMGWYRQAPGKERELVAVISRRGGTTYYADSVKGRFTISRDNAKNSVYLQMNSLKPEDTAVYYCAARRSFNEYDYWGQGTQVTVSS”, the “polyreactivity (PSR sort gate)” value is given as “high polyreactivity”.

Regarding “QVQLVESGGGIVQAGGSLRLSCAASGSIFQYNAMGWYRQAPGKERELVAAITRGDSTYYADSVKGRFTISRDNAKNTVYLQMNSLKPEDTAVYYCAARPRGKYDYWGQGTQVTVSS”, the “polyreactivity (PSR sort gate)” value is given as “high polyreactivity”.

“QVQLVESGGGIVQAGGSLRLSCAASGSIFSYYAMGWYRMAPGKERELVAGITGGGSTDYADSLKGRFTISRDNAKNTVYLQMNSLKPEDTAVYYCAKRYVPWRPYDYWGKGTQVTVSS”: the “polyreactivity (PSR sort gate)” value is “low polyreactivity”.

Turning to “QVQLVESGGGIVQAGGSLRLSCAASGSIFVENAMGWTRQAPGKERELVAAISSDASTNYADSVKGRFTISRDNAKNTVFLQRNSLKPEDTAVYYCAAGYNQHGQYDYWGQGTQVTVSS”, the “polyreactivity (PSR sort gate)” value was “low polyreactivity”.

For the sequence “QVQLVESGGGIVQAGGSLRLSCAASGSIFVHNDLGWYRQAPGKERELVARINTGGGTNYADSVKGRFTISRDNAKKTVYLQMNSLKPEDTAVYYCATDGDRDDHYFTDPEFDYWGQGTQVTVSS”, the “polyreactivity (PSR sort gate)” value was “low polyreactivity”.

On to “QVQLVESGGGIVQAGGSLRLSCAASGSIFYPYVMGWYRQAPGKERELVAAITTSVGSTYYADSVKGRFTISRDHAKNTVYLQMNSLKPEDTAVYYCAAKYFGSRRPGRYNYWGQGTQVTVSS”, for which the “polyreactivity (PSR sort gate)” value was “high polyreactivity”.

Take “QVQLVESGGGIVQAGGSLRLSCAASGSIFYQYAMGWYRQAPGKERELVAAISRSGGSTYYADSVKGRFTISRDNAKNNVYLQMNSLKPVDTAVYYCAARAVRAAYDYWGQGTQVTVSS”: the “polyreactivity (PSR sort gate)” value was “low polyreactivity”.

With “QVQLVESGGGIVQAGGSLRLSCAASGSISFLYTMGWYRQAPGKERELVAAITGSTASTYYADSVKGRFTISRDNAKNTVYLQMNSLKPEDTAVYYCAAYWYAEGYWVSRDYWGQGTQVTVSS”, the “polyreactivity (PSR sort gate)” value is recorded as “low polyreactivity”.

Take “QVQLVESGGGIVQAGGSLRLSCAASGSSFQTNAMGWYRLAPGKERELVATINRSGDSTYYADSVKGRFTISRDNAKNTVYLQMNSLKPEDTAVYYCNKDWHSQDFSAYNSYDYWGQGTQVTVSS”: the “polyreactivity (PSR sort gate)” value is “low polyreactivity”.

“QVQLVESGGGIVQAGGSLRLSCAASGSSINLYAMGWYRQAPGKERELVAAINDDAGSTYYADSVKGRFTISRDNAKNTVYLQMNSLKPEDTAVYYCNAGSRSTEYDYWGQGTQVTVSS”: the “polyreactivity (PSR sort gate)” value is given as “low polyreactivity”.

For the sequence “QVQLVESGGGIVQAGGSLRLSCAASGSTFATYTMGWYRQAPGKERELVAAISSRGGSTYYADSVKGRFTISRDNAKNTVYLQMNSLKPEDTAVYYCNARRSTDPARYYWGQGSQVTVSS”, the “polyreactivity (PSR sort gate)” value was “high polyreactivity”.

Regarding “QVQLVESGGGIVQAGGSLRLSCAASGSTFESNAMGSYRQAPGKERELVAAISRGGNTYYADSVKGRFTISRDNAKNTVYLQMNSLKPEDTAVYYCNVDRGNPVQPSEYWGQGTQVTVSS”, the “polyreactivity (PSR sort gate)” value is listed as “low polyreactivity”.

Take “QVQLVESGGGIVQAGGSLRLSCAASGSTFFIYAMGWYRQAPGKERELVAAISGSGGTTYYADSVKGRFTISRDNAKNTVYLQMNSLKPEDTAVYYCAARTFSAFWRGGYDYWGQGTQVTVSS”: the “polyreactivity (PSR sort gate)” value is recorded as “low polyreactivity”.

Consider “QVQLVESGGGIVQAGGSLRLSCAASGSTFGYYAMGWYRQAPGKERELVAAISWRGGSTYYADSVKGRFTISRDNAKNTVYLQMNSLKPEDTAVYYCAAQRGGPFPRVVDLYDYWGQGTQVTVSS”, for which the “polyreactivity (PSR sort gate)” value is on record as “low polyreactivity”.

“QVQLVESGGGIVQAGGSLRLSCAASGSTFLYYAMGWYRQAPGKERELVAAISSGGSTYYADSVKGRFTISRDNAKNTVYLQMNSLKPEDTAVYYCAAVRPGYVAYYYWGQGTQVTVSS”: the “polyreactivity (PSR sort gate)” value is on record as “high polyreactivity”.

With “QVQLVESGGGIVQAGGSLRLSCAASGSTFNWNAMGWYRQAPGKEREFVAAISKSGGTTYYADSVKGRFTISRDNAKNTVYLQMNSLKPEDTAVYYCAAVRRYHSYPDGGYWGQGTQVTVSS”, the “polyreactivity (PSR sort gate)” value is listed as “high polyreactivity”.

With “QVQLVESGGGIVQAGGSLRLSCAASGSTFVSNAMGWYRQAPGKERELVAAITTGGSTYYADSVKGRFTISRDNAKNTVYLQMNSLKPEDTAVYYCAADSVLNWFWGQGTQVTVSS”, the “polyreactivity (PSR sort gate)” value is “low polyreactivity”.

“QVQLVESGGGIVQAGGSLRLSCAASGSTFVVYAMVWYRQEPGKERELVAAITSGGSTYYADSVKGRFTISRDNAKNTVFLQMNSLKPDDSAVYYCNKDDFSNELYWGQGTDVTVSS”: the “polyreactivity (PSR sort gate)” value is recorded as “low polyreactivity”.

With “QVQLVESGGGIVQAGGSLRLSCAASGSTLDYHDMGWYRQAPGKEREFVAAIRSNDGSTYYADSVKGRFTISLDNAKNTVYLQMNSLKPEDTAVYYCNKDVWDGYDWPEFDYWGQGTQVTVSS”, the “polyreactivity (PSR sort gate)” value is on record as “low polyreactivity”.

“QVQLVESGGGIVQAGGSLRLSCAASGSTSSSDDMGWYRQAPGQERELVADITSGGRTYYADSVKGRFTISRDNAKNTVYLQMNSLKPEATAVYYCAADTIEHYSLVTPTQGKFDSWGQGTQVTVSS”: the “polyreactivity (PSR sort gate)” value was “low polyreactivity”.

As for “QVQLVESGGGIVQAGGSLRLSCAASGYTISYYAMGCYRQAPGKERELVASISWRGGGTYYADSVKGRFTISRDNAKNTVYLQMNSLKAEDTAVYYCNIDYYATPYGYWGQGTQVTVSS”, the “polyreactivity (PSR sort gate)” value is reported as “low polyreactivity”.

As to “QVQLVESGGGIVQAGGSLRLSCAATGFTFVYYAMGWYRQEPGKERELVAAISSRGGSTNYADSVKGRFTISRDNAKKTVYLQMNSLKPEDTAVYYCAARANTKKPYYYWGQGTQVTVSS”, the “polyreactivity (PSR sort gate)” value is “high polyreactivity”.

The values above are taken from the nanobody polyreactivity screen of Harvey et al. (2022).
